Measurements published in a protein production outcome set (Wang et al. 2014).

Test: label from the status in PepcDB records

| Sequence | protein production |
| --- | --- |
| MGHHHHHHSHAHTTTSMEIFGSPEQVWQLIGGFNSLPDWLPYIPSSKLTEGGRVRHLANPDGDTIIERLEVFNDKERYYTYSIMNAPFPVTNYLSTIQVKEGTESNTSLVEWSGTFTPVEVSDEEAINLFHGIYSDGLKALQQAF | not failed |
| MGHHHHHHSHGQQSVSNKLLAWSGVLEWQEKPKPASVDANTKLTRSLPCQVYVNHGENLKTEQWPQKLIMQLIPQQLLTTLGPLFRNSRMVQFHFTNKDLESLKGLYRIMGNGFAGCVHFPHTAPCEVRVLMLLYSSKKKIFMGLIPYDQSGFVNGIRQVITN | not failed |
| MGHHHHHHSHMAAAIASSLIRQKRQAREREKSNACKCVSSPSKGKTSCDKNKLNVFSRVKLFGSKKRRRRRPEPQLKGIVTKLYSRQGYHLQLQADGTIDGTKDEDSTYTLFNLIPVGLRVVAIQGVQTKLYLAMNSEGYLYTSELFTPECKFKESVFENYYVTYSSMIYRQQQSGRGWYLGLNKEGEIMKGNHVKKNKPAAHFLPKPLKVAMYKEPSLHDLTEFSRSGSGTPTKSRSVSGVLNGGKSMSHNEST | not failed |
| MGHHHHHHSHMADNMTTTQIEVGPGATNATINFEAGILECYERFSWQRALDYPGQDRLHRLKRKLESRIKTHNKSEPENKRMSLEERKAIGVKMMKVLLFMDPSAGIEGFEPY | not failed |
| MGHHHHHHSHMAGTVVLDDVELREAQRDYLDFLDDEEDQGIYQSKVRELISDNQYRLIVNVNDLRRKNEKRANRLLNNAFEELVAFQRALKDFVASIDATYAKQYEEFYVGLEGSFGSKHVSPRTLTSCFLSCVVCVEGIVTKCSLVRPKVVRSVHYCPATKKTIERRYSDLTTLVAFPSSSVYPTKDEENNPLETEYGLSVYKDHQTITIQEMPEKAPAGQLPRSVDVILDDDLVDKAKPGDRVQVVGTYRCLPGKKGGYTSGTFRTVLIACNVKQMS | not failed |
| MGHHHHHHSHMAKTYDYLFKLLLIGDSGVGKTCVLFRFSEDAFNSTFISTIGIDFKIRTIELDGKRIKLQIWDTAGQERFRTITTAYYRGAMGIMLVYDITNEKSFDNIRNWIRNIEEHASADVEKMILGNKCDVNDKRQVSKERGEKLALDYGIKFMETSAKANINVENAFFTLARDIKAKMDKKLEGNSPQGSNQGVKITPDQQKRSSFFRCVLL | not failed |
| MGHHHHHHSHMALKDYALEKEKVKKFLQEFYQDDELGKKQFKYGNQLVRLAHREQVALYVDLDDVAEDDPELVDSICENARRYAKLFADAVQELLPQYKEREVVNKDVLDVYIEHRLMMEQRSRDPGMV | not failed |
| MGHHHHHHSHMATGQDRVVALVDMDCFFVQVEQRQNPHLRNKPCAVVQYKSWKGGGIIAVSYEARAFGVTRSMWADDAKKLCPDLLLAQVRESRGKANLTKYREASVEVMEIMSRFAVIERASIDEAYVDLTSAVQERLQKLQGQPISADLLPSTYIEGLPQGPTTAEETVQKEGMRKQGLFQWLDSLQIDNLTSPDLQLTVGAVIVEEMRAAIERETGFQCSAGISHNKVLAKLACGLNKPNRQTLVSHGSVPQLFSQMPIRKIRSLGGKLGASVIEILGIEYMGELTQFTESQLQSHFGEKNGSWLYAMCRGIEHDPVKPRQLP | not failed |
| MGHHHHHHSHMNSAEQTVTWLITLGVLESPKKTISDPEGFLQASLKDGVVLCRLLERLLPGTIEKVYPEPRSESECLSNIREFLRGCGASLRLELLFPPSQPPQHLVTTILLSASTFDANDLYQGQNFNKVLSSLVTLNKVTADIGLGSDSVCARPSSHRIKSFDSLGSQSLHTR | failed |
| MGHHHHHHSHMNSDSECPLSHDGYCLHDGVCMYIEALDKYACNCVVGYIGERCQYRDLKWWELR | failed |
| MGHHHHHHSHMQPAKEVTKASDGSLLGDLGHTPLSKKEGIKWQRPRLSRQALMRCCLVKWILSSTAPQGSDSSDSELELSTVRHQPEGLDQLQAQTKFTKKELQSLYRGFKNECPTGLVDEDTFKLIYAQFFPQGDATTYAHFLFNAFDADGNGAIHFEDFVVGLSILLRGTVHEKLKWAFNLYDINKDGYITKEEMLAIMKSIYDMMGRHTYPILREDAPAEHVERFFEKMDRNQDGVVTIEEFLEACQKDENIMSSMQLFENVI | failed |
| MGHHHHHHSHMSRVPPTVTNAVSWRSEGIKYKKNEVFIDVIESVNLLVNANGSVLLSEIVGTIKLKVFLSGMPELRLGLNDRVLFELTGRSKNKSVELEDVKFHQCVRLSRFDNDRTISFIPPDGDFELMSYRLSTQVKPLIWIESVIEKFSHSRVEIMVKAKGQFKKQSVANGVEISVPVPSDADSPRFKTSVGSAKYVPERNVVIWSIKSFPGGKEYLMRAHFGLPSVEKEEVEGRPPIGVKFEIPYFTVSGIQVRYMKIIEKSGYQALPWVRYITQSGDYQLRTS | failed |
| MGHHHHHHSHMVANPPASKESIDALPEILVTEDHGAVGQEMCCPICCSEYVKGEVATELPCHHYFHKPCVSIWLQKSGTCPVCRCMFPPPL | failed |
| MGHHHHHHSHRGAGRVSRWPPPHWLEAWRVSPRPLSPLSPATFGRGFIAVAVIPGLWARGRGCSSDRLPRPAGPARRQFQAASLLTRGWGRAWPWKQILKELDECYERFSRETDGAQK | failed |
| MGHHHHHHSHRNLDSRTFITIGDRNFEVEADDLVTISELGRGAYGVVEKVRHAQSGTIMAVKRIRATVNSQEQKRLLMDLDINMRTVDCFYTVTFYGALFREGDVWICMELMDTSLDKFYRKVLDKNMTIPEDILGEIAVSIVRALEHLHSKLSVIHRDVKPSNVLINKEGHVKMCDFGISGYLVDSVAKTMDAGCKPYMAPERINPELNQKGYNVKSDVWSLGITMIEMAILRFPYESWGTPFQQLKQVVEEPSPQLPADRFSPEFVDFTAQCLRKNPAERMSYLELMEHPFFTLHKTKKTDIAAFVKEILGEDS | failed |
| MGHHHHHHSHVRSPQNQYPAELMRRFELYFQGPSSNKPRVIREVRADSVGKLVTVRGIVTRVSEVKPKMVVATYTCDQCGAETYQPIQSPTFMPLIMCPSQECQTNRSGGRLYLQTRGSRFIKFQEMKMQEHSDQVPVGNIPRSITVLVEGENTRIAQPGDHVSVTGIFLPILRTGFRQVVQGLLSETYLEAHRIVK | failed |
| MGHVSNSPFSVDVLVVGGGPAGSAAAIHAAKAGYSVLLIDAQPFPRDKTCGDGLTPRAVHQLEALGVDVTSRYRSFGLKLHGFGGSVTVPWPESHFGQVSSAMPRMKFDAMLWEMAAQHATTWTATASEVEIDSAIRSVTMSDGRVVKPRSVIVADGVRSTFGKLLGRTWHRGEVYGIAARSYCTTPRSTEPWMHSHLELRDDSTTLPGYGWIFPIGDGTANVGCGALSTDKRPAKINTKKLLRHYASQQTDWEFGTPQRVASALLPMGGAVSTIAGPNWMLIGDAAACVNPLNGEGIDYGLETAALAVAHLDNPLEWPHILRETYGEAFLLARTAARLLTYPQFLPLTGPIALRTPLMASAARLMGNLVTEEDKDIVARAWRAAGWGVTKIRGGSPLWDLEHHHHHH | failed |
| MGICVSFRREDSNSSPTVKIVTVNGDLREYNVPVIASQVLEAESAAAYSSSSSSRPSSYFICDSDSLYYDDFIPAIKSEEPLQADQIYFVLPISKRQSRLTASDMAALAVKASVAIQNSVKKESRRRKKVRISPVMMLTGSNDSVNGNGSETTVKKGRPFVSKTAPVKASSGINRSGSVRNLRRYTSKRAKLAVRSFRLKLSTIYEGSVV | failed |
| MGICVVIPAFNAALTIEAVVRETLEQGLPLVVVDDGSEDGTADCVRGLPVNLVSHGRNRGKGAALKTGFAWALEYGFSGVITLDSDGQHDPTAITLLAETAKNDGWDILVASRFAQFNQMAGLRRHWNRFGAWCMKKRTGFQIDDSQSGFRYYSARLLRMVSLGKDGYDLEMEILMKAWQAGCTIGSVPVPARVADGRATSHFRPVRDTWNICMTFLRYMLEHHHHHH | failed |
| MGIEMSLKDIINSNRPSESRQLACALTFCGGFIDAYTYIQRGHTLSAGQTGNVIFFSSALADHNIPGMINRASTFIAFSLGLLLVGLFHKYVKSHYWRVFCLFPILVICIVVGFLPKSVPNYYIVPAIAFGLAVQNASFSKIEGMGYNNVFTTGNLKKSVVAWSAFFFGEDKSKYTAAVNYMMLVISFGLGAIVSALLQKIWVLKTIWIAVIFLAIINCIYIIAIRKHKKLDLSGKNDA | failed |
| MGIHAKLETVQLPLLVSCLFPPLTMPAKDVQICPIAVDTTVFRSRTWDRLKFEIEYGLQRGTTANSYLISADKIALFDPPGESFTDNFVGTLIQRLDLNSLDYVILGHVNANRAHTLKLLLSLAPQATIICSNPAAQNLEKLLADAEVNNPIQVMKGNDHLDLGRGHELTFIPTPSPRYPGQLCTYDPRTEILFTDKLFGAHVCGDQVFDEGWTIYQEDRRYYFDCLLAPAAAQVSAALNKLEAYPAQTYAPSHGPLVRYGLRELTRNYQQWLSEQQAQALNVALIYASAYGNTSTLAQAIARGITKAGVAVTAINAETSNAEEIKEAIGKSAGFIFGSPTLGGHAPTPIQTALGITLANASKTQLCGVFGSFGWSGEAIDMLENKFRDAGFSFGFDTIRVKFKPTDQTLKMCEEAGTDFAQALKKAEKRRQPKSALPESESARTEQALGRLVGSLCVVTAQQGELSSAMLASWVSQATFSPPGLTVAVAKERAIESLLHKNSCFVLNILQEGNHLGLMKHFLKPFAPGGDRFADVATETAENGAPILTESLAYLECRVQQRLECGDHWVLYAVTDRGALLKDGVTAVHHRKSGDHY | failed |
| MGIRVKRRQHQHLLESLVHSTAKQQGDFTKTAELATELLCQNLAVSLVSIWIFSADQGTQSLVAQFGSMALQDTYRPSLLHTVPRYLNELKNYRHIDAGNTLIDPRLTELVDSYFIPRQILSSLDVGIRINGHLEGVLCIERAQVTHHWHDSEIHLACQMADQLALTLATKHAYLEHHHHHH | failed |
| MGISNIKQLYSKWKSLQPLKPEDLKRWNDKFKLEFNYNSNHLEGNTLTYGQTKLLLMFGETSGNASLKDYEEMKAHNVGLEMIKQEAQDKERPLTESFIRELNRTILVQDYWKNAKTPDGQDIRMQIKVGEYKSRPNSVLTATGEVFSYASPEETPAFMTSLVDWYNLEADKGILTPVELAALLHYRYIRIHPFEDGNGRIARLLVNFVLHRYGYPMIVIHSEDKSNYLNILHQCDVEAGLTPSDGANATLNDILPFVNYLSSCLIRSLTLAIKAAKGESIEEEGDFDKK | not failed |
| MGITDGVVVDLGGGTTGISILEKGKVIFVADEPTGGTHMTLVLAGSYGIDFETAEDIKTDKKKEKEVFVQITPVLQKMAAIVKKYIKDYKVKDVFLVGGACSFDGSESIFERELGLNIYKLEHHHHHH | failed |
| MGITITDELLWAILKDELSDAEANALVWQALGYVWDEAQSCWKTDLVAPEWRQDYPEPPDFIASRPATVKLTRSIPAPYKQLLKEELGFAGYSINELVPRKTRRATMTNWLLAYRRSQQD | not failed |
| MGITRKYIANLKDLPTRVQDENDCTSEPFTKPRLCCKMVNKIRNTLVSTETFLQKENITLDTYKRIIRDLVIHLDRVTTKVFVNSLPYNVMDDLGLQECEAFVLKWSEELRKLQSEYRNHLDQISNIERLRRSLNVCLKTREDQIQKVQKEFQWFINILKSLPKSSVCQDGFARIELLNLYRQWKKGQLISMLPIMDFIMKTLLKEKDSILKRKLQPKSA | failed |
| MGKALLIVNPSSGKEKGKTYQGKTEEVLKKRYDEVEVRLTEKAGDATEFASWASEQGFDAVIAMGGDGTLNETINGLAIHEKRPDFGFIPLGTVNDLARSVGIPLKPEKAIQALEKAKAIPMDIGRIGDQYFMNVLAIGMIAQAVDQVSVEQKTKFGSVAYFLEGLKAFNRNELLHFKLEYDEEVWEGEAALVVAGLTKSVGGMESWAPDAKIDDGYLHVVVLTKLGLLDAANMIPQLIRGNLKNSDGVVYIKTKKLTIDASGDDLSINVDGDPGPGVPAEIEVLGSHLNILAPKKSSQKRFGPFILKK | failed |
